Measured values taken from patent EP3388527.

Target: T1, GP-1 (human, UniProt Q14242)
T1 chain: QATEYEYLDYDFLPETEPP
Assay: SPR

B1: SelK1 (antibody, V domains shown)
VH: QVQLQQSGPGLVKPSQTLSLTCAISGDSVSSNIAAWHWIRLSPSRGLEWLGRTYYRRSKWNYDYALSVKSRININPDTSKNLFSLQLNSVTPEDTAVYYCTRGGGRAHSAWGQGTLVTVSS
VL: EIVLTQSPGTLSVSPGERATLSCRASQSVSRSHLAWYQQKPGQAPRLLIFGASSRATGIPDRFSGSGSGTDFTLTISRLEPEDFAVYYCQQYGRPGVTFGQGTKVEIK
- binding result: no binding
